Consider one molecule from US8628762B2, “T-helper cell type 17 lineage-specific adjuvants, compositions and methods” (Icahn School of Medicine at Mount Sinai, priority 2008, dated 2014).

For one assay, the system named is Naïve CD4 T-cells. The assay is described as follows: qPCR of lineage genes in naïve CD4 T-cells cultured with DCCM. The class given is cell-based, C57BL/6J mice. Particulars: quantitative RT-PCR. From the text:
(§1) Naïve CD4 T cells were isolated first by sorting with MACS® CD4^+ beads (Miltenyi Biotech, Auburn, Calif.) according to manufacturer's instructions and then by fluorescence activated cell sorting (FACS) using a MoFlo™, Vantage, or Influx™ cell sorter for CD25^−CD44^lowCD62L^high cells using allophycocyanin (APC)-conjugated anti-CD25 monoclonal antibody (mAb) (clone PC61.5), FITC-conjugated CD62L mAb (clone MEL-14), and PE-Cy5-conjugated CD44 mAb (clone IM7) (all from eBioscience™, San Diego, Calif.). Cells were grown in complete IMDM (Gibco, Carlsbad, Calif.) supplemented with 10% FBS, 100 μg/mL penicillin, 100 μg/mL streptomycin, 2 mM L-glutamine, 10 mM HEPES, and 1 nM sodium pyruvate, and activated on 48-well tissue-culture plates which had been coated with 4 μg anti-CD3 (clone 2C11) for 3 h at 37° C., then washed 3 times with PBS. Cultures were supplemented with 2 μg/mL anti-CD28 (clone 37-51, a kind gift from J. Allison, Sloan-Kettering Cancer Center) and anti-IL-4 ascites (clone 11B11, a kind gift from T. Moran, Mount Sinai School of Medicine, ATCC number HB188) at 1:500. mAbs 2C11 and 37-51 were purified from hybridoma supernatants by BioXCell Company (West Lebanon, N.H.). When cultured with conditioned medium (CM) from BMDC, T cells were grown in 1:1 CM:fresh complete IMDM. […]
T cells cultured for 48 hours under the indicated conditions were lysed and RNA isolated by TRIzol® extraction (Invitrogen) according to manufacturer's instructions. […] Quantitative real-time, reverse transcription polymerase chain reaction (qPCR) was conducted on an ABI Prism® 7900 instrument (Applied Biosystems, Foster City, Calif.) with primer pairs and probes as follows. […]
Quantitative PCR was performed using TaqMan® quantitative PCR Master Mix at a concentration of 1× (Applied Biosystems). […] “Fold inductions” were calculated using the ΔΔCt method relative to T cells activated under neutral conditions (No cytokines or CM). […]
On the technique in general: In qPCR the cycle at which signal appears reflects the starting amount.

The test system of a further assay is Naïve CD4 T cells. The assay is described as follows: Intracellular staining (IL-17, IFN-γ, IL-10, Foxp3) of CD4 T cells cultured with DCCM, flow cytometry. The class given is cell-based, C57BL/6J mice. The note with it: IL-6 added to DCCM-apoptotic B-cells or DCCM-apoptotic neutrophils.
From the text: as §1, with “PBS.” for “PBS. Cultures were supplemented with 2 μg/mL anti-CD28 (clone 37-51, a kind gift from J. Allison, Sloan-Kettering Cancer Center) and anti-IL-4 ascites (clone 11B11, a kind gift from T. Moran, Mount Sinai School of Medicine, ATCC number HB188) at 1:500. mAbs 2C11 and 37-51 were purified from hybridoma supernatants by BioXCell Company (West Lebanon, N.H.). When cultured with conditioned medium (CM) from BMDC, T cells were grown in 1:1 CM:fresh complete IMDM.”
Because development of Treg cells is reciprocally related to TH17 cells^10 expression of Foxp3, a transcription factor unique to Treg cells^19 was examined. After 3 days of culture with DCCM from the indicated groups, T cells were restimulated with PMA and ionomycin for 4 hours with Brefeldin A before intracellular cytokine staining for IL-17 and IFN-γ was performed, and expression of these cytokines was determined by FACS. […]

B1: IL-6: cytokine interleukin-6 (Peprotech), 50 ng/mL (protein, UniProt P08505 25-211, looked up)
Interleukin-6: FPTSQVRRGDFTEDTTPNRPVYTTSQVGGLITHVLWEIVEMRKELCNGNSDCMNNDDALAENNLKLPEIQRNDGCYQTGYNQEICLLKISSGLLEYHSYLEYMKNNLKDNKKDKARVLQRDTETLIHIFNQEVKDLHKIVLPTPISNALLTDKLESQKEWLRTKTIQFILKSLEEFLKVTLRSTRQT
Take B1: the “Foxp3 mRNA induction” value with Naïve CD4 T-cells is “Foxp3 induction was impaired”. For the same molecule, in the assay on Naïve CD4 T cells, the Foxp3 expression entry is “markedly impaired Foxp3 expression” and the IL-17 production entry was “restored IL-17 production”.
